Laboratory results as given in patent publication US20040077017A1.

Target: Fc3(1) (human) (UniProt P01860)
Experiment: Biacore 2000 SPR, Fc3(1) immobilized on CM5 chip, 25 C, HBS

Kd: 90 nM
Substance: unlabeled, wild-type Z-ABD (from UniProt P19909 254-299) (designed binder)
